From the RNAGym collection of RNA variant scans (doi:10.1073/pnas.2313332121) come the findings set out here.

This sample holds only a part of the variants without activity.

The labels stand for the following.
B1: TPR 5TU (parent)
chain: GGAUCUUCUCGAUCUAACAAAAAAGACAAAUCUGCCACAAAGCUUGAGAGCAUCUUCGGAUGCAGAGGCGGCAGCCUUCGGUGGCGCGAUAGCGCCAACGUUCUCAACUAUGACACGCAAAACGCGUGCUCCGUUGAAUGGAGUUUAUCAUG

The variants in the data set derive from B1. Kind of data set: polymerase ribozyme fitness, log enrichment relative to wild type (log ratio); higher = more active; in vitro selection for triplet polymerase activity. Put shortly:
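Mutant libraries of both subunits of a heterodimeric triplet polymerase ribozyme were PCR-built, transcribed, and selected once in triplicate, with frozen incubation at −7 °C and capture of gel-excised extended constructs on streptavidin beads before RT-PCR. Illumina sequencing of input and output libraries was filtered to genotypes with ≥10 input reads and ≥1 read per output. Fitness is the logarithm of genotype enrichment over wild-type enrichment, using inverse-variance-weighted replicate averages. The logarithm is base 2.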
C75A C95U A98U C103U U145G U146G: the “polymerase ribozyme fitness (log ratio)” value was no more than -4.2. With C72U G92U U135A G143A the figure was -3.54. For the variant A73C G86C U104C, the “polymerase ribozyme fitness (log ratio)” value is no more than -4.2.

A73U C75G G88C: the “polymerase ribozyme fitness (log ratio)” value was no more than -4.2. In the case of C72U A122G, the “polymerase ribozyme fitness (log ratio)” value was -0.726.

Consider C69U G136A A142U, for which the “polymerase ribozyme fitness (log ratio)” value was -0.531. With G70A G88C U144C the figure was no more than -4.2; with C72U A147C, -1.72.

Regarding C72U A147U, the “polymerase ribozyme fitness (log ratio)” value is 0.651. As for C69U G84U G133C, the “polymerase ribozyme fitness (log ratio)” value is -3.62. For the variant G70C G136C, the “polymerase ribozyme fitness (log ratio)” value was no more than -4.2. The value for A73U C79U G88A A119G G124U C149A was no more than -4.2; that for C69U was -1.03. With C69G the figure was -1.51. With A73U G92U G141A U145A the figure was -3.24; with C75A G83A A98U, -4.16; with A73G U104C, -0.284. In the case of G70U A73U A89G C95G G141U, the “polymerase ribozyme fitness (log ratio)” value was no more than -4.2.

Turning to A73U C75U C118G, the “polymerase ribozyme fitness (log ratio)” value was no more than -4.2. With G70U C76A the figure was -4.19; with G74A A91U G117U G141U, no more than -4.2.

On to A73U G81U A106G A115G A119U A147C, for which the “polymerase ribozyme fitness (log ratio)” value is no more than -4.2. As to A73G C85U G88A A119U U134A G140C, the “polymerase ribozyme fitness (log ratio)” value is no more than -4.2.

Consider G70U G136A, for which the “polymerase ribozyme fitness (log ratio)” value is -1.86. The value for A73G C118G C132G was no more than -4.2; that for C72A C85A was -3.85; that for G74C C118U was -4.02. The value for G71C A91U C93U U104G was no more than -4.2; that for C72U C96G U127C C131U G140U U151A was no more than -4.2. With A73G C87A the figure was -4.18; with A73G C87U, -1.55; with A73U C95A U104G, -4.05.

G71U C108U: the “polymerase ribozyme fitness (log ratio)” value was no more than -4.2. With G74A G100U U104C U109G U146A, the “polymerase ribozyme fitness (log ratio)” value is no more than -4.2.

Turning to G71A C87A G92C, the “polymerase ribozyme fitness (log ratio)” value was -3.04. With G74C U90C A91C U104G U130A the figure was no more than -4.2. With C69G C72U U134A the figure was no more than -4.2; with A73G C93U A110U, no more than -4.2. For G71A G86A, the “polymerase ribozyme fitness (log ratio)” value is -3.5. With G71U C93U U104G C149A the figure was no more than -4.2; with C69U U78A A97U G143C, no more than -4.2; with C72U C93G U130C G133C, no more than -4.2. With A73G G126U the figure was -0.214. With A73G G126C the figure was 0.529. With C72U C93G A106G A121U, the “polymerase ribozyme fitness (log ratio)” value was -2.98.

For the variant C69G C103G C116U, the “polymerase ribozyme fitness (log ratio)” value was -2.03. With A73G C85U C96G C108G U127G G136C the figure was no more than -4.2.

Consider C69G A106C A137C, for which the “polymerase ribozyme fitness (log ratio)” value is no more than -4.2. For G70U C87A A115U C116A U151A, the “polymerase ribozyme fitness (log ratio)” value was no more than -4.2. The value for G70U G80U A119G was no more than -4.2. The value for A73U C96A U109A C116U was -3.64; that for G71C A91U G136C was no more than -4.2. In the case of G70C G83C C105U C125U, the “polymerase ribozyme fitness (log ratio)” value was no more than -4.2. On to C72A G81U G83C C93U, for which the “polymerase ribozyme fitness (log ratio)” value is no more than -4.2. With G70A C76A C79G A91U the figure was no more than -4.2; with G70C G88U A91G C95A A119G U144C U148C, no more than -4.2; with G71U A89U U135A, no more than -4.2. The value for G70A A147U was -2.67; that for C69U G84C C132G G143A was no more than -4.2; that for C72U G128U was -3.1.

As for A73U G86U, the “polymerase ribozyme fitness (log ratio)” value is -4.19. The value for C69G C85A G94U was -1.01. The value for G70A C96U was -2.89; that for A73C C96G C118U G143U was no more than -4.2. Turning to A73G U148A, the “polymerase ribozyme fitness (log ratio)” value is -3.81. With A73G U148C the figure was -2.55; with G74A U148A, no more than -4.2; with C72U U145A, 0.261.

Take C72U C87A A98U A138C: the “polymerase ribozyme fitness (log ratio)” value was no more than -4.2.

Regarding C72G A89G G92A C114G, the “polymerase ribozyme fitness (log ratio)” value is no more than -4.2. With G70A G74C C125G U144G the figure was no more than -4.2; with A73C G81C A110G A121G, no more than -4.2; with A73G U134G, -2.2.

For G74A A106G A122U, the “polymerase ribozyme fitness (log ratio)” value was no more than -4.2. The value for G71A U104C was -3.42; that for C69G G88A U90G U146A was no more than -4.2. With G74A U77A G92U G112U G124A the figure was no more than -4.2; with A73U G80U, -2.82; with C75A C96U A97C, no more than -4.2.

As for G70C C76A C79U C87A, the “polymerase ribozyme fitness (log ratio)” value is no more than -4.2.

Consider G70C G86A C114U A115G G143U A150C, for which the “polymerase ribozyme fitness (log ratio)” value is no more than -4.2. With G74C G92U the figure was -4.02; with G70U A119C, -2.09; with G71A G80U C85U, no more than -4.2. With A73U C96G the figure was -1.8. The value for G70A G84U C116A was -4.13. On to A73U C93U G136A, for which the “polymerase ribozyme fitness (log ratio)” value was -1.59.

Consider A73G C125G, for which the “polymerase ribozyme fitness (log ratio)” value is -0.161. Consider A73G C85A, for which the “polymerase ribozyme fitness (log ratio)” value is -1.22. For the variant G70A A110G A142G, the “polymerase ribozyme fitness (log ratio)” value was -4.14. With C69G C99A A115G the figure was -3.71; with C72G C85G, no more than -4.2; with G71U G84U U101C G117U C123U, -4.15.

In the case of A73G C96G C105A U139A, the “polymerase ribozyme fitness (log ratio)” value is no more than -4.2.

On to G71C C93U C95G C99G A115C, for which the “polymerase ribozyme fitness (log ratio)” value was -3.95.

With G71U G92U G136A, the “polymerase ribozyme fitness (log ratio)” value was -2.26.

Turning to G74U G88A A119U C125U, the “polymerase ribozyme fitness (log ratio)” value is -3.95. With A73G C87G U146G the figure was no more than -4.2; with C69U C85G, -2.16; with C69U C85A, -3.16. The value for G71C A119G was -3.01; that for A73G C95U was -0.166; that for C75G A97U was no more than -4.2.

As for C69U G86C, the “polymerase ribozyme fitness (log ratio)” value was no more than -4.2. In the case of C69U C118U, the “polymerase ribozyme fitness (log ratio)” value is -1.4.

In the case of C72U C76A G84A C87U A91G A106G C125A, the “polymerase ribozyme fitness (log ratio)” value is no more than -4.2.

Consider C69U C132G G140U, for which the “polymerase ribozyme fitness (log ratio)” value is -1. Turning to A73U G133U A147C, the “polymerase ribozyme fitness (log ratio)” value was no more than -4.2. With C69G C85U U101G the figure was -1.25.

As for C69G C72U, the “polymerase ribozyme fitness (log ratio)” value is -2.71. Take A73U C93A: the “polymerase ribozyme fitness (log ratio)” value is -3.39. For A73U C93U, the “polymerase ribozyme fitness (log ratio)” value was -1.62. The value for C72U C87U U101G G124C was -1.6; that for A73U C118U was -0.982.

G70C G88U A97C: the “polymerase ribozyme fitness (log ratio)” value was no more than -4.2. C72G C108U A137C: the “polymerase ribozyme fitness (log ratio)” value is no more than -4.2.

Regarding C69U A106C, the “polymerase ribozyme fitness (log ratio)” value was -2.21.

With C69U G71U C87U A89C, the “polymerase ribozyme fitness (log ratio)” value is -3.31.

In the case of C75A G86U, the “polymerase ribozyme fitness (log ratio)” value is no more than -4.2. With G74A U77G, the “polymerase ribozyme fitness (log ratio)” value was no more than -4.2. The value for G74U A97U was -4.18; that for G71U G94C A110G was no more than -4.2. As to C72U C87U C105A, the “polymerase ribozyme fitness (log ratio)” value is -3.79. As to G74C U82C, the “polymerase ribozyme fitness (log ratio)” value is -4.05. With G71C G84A A119U the figure was -2.68; with C69A U144C, -1.07. The value for G74A U77G G83A was no more than -4.2; that for A73G C76U C93A C99A U145A was no more than -4.2. Take G71A A91U U146G: the “polymerase ribozyme fitness (log ratio)” value was no more than -4.2. For A73U A150G, the “polymerase ribozyme fitness (log ratio)” value was -2.68. The value for G74A G141U was -2.35; that for C69U C76U A97U U109G G112C C125A was no more than -4.2. With G70U G81A the figure was -2.35; with C69U C87A G141U G143A, no more than -4.2; with A73G C93A A110C U139A, no more than -4.2. In the case of G74U, the “polymerase ribozyme fitness (log ratio)” value was -3.33. With G74A the figure was -2.81; with G74C, -3.96.

As to G70A G84A C87G A113C A120G, the “polymerase ribozyme fitness (log ratio)” value is no more than -4.2.

As for C72U G126U C132A, the “polymerase ribozyme fitness (log ratio)” value was -4.12. With A73U C103G, the “polymerase ribozyme fitness (log ratio)” value was no more than -4.2. The value for A73U C99A C103G C114U C123G was no more than -4.2; that for C72G G83U G124U G128U G133A U148A was no more than -4.2. Turning to G71U G84A, the “polymerase ribozyme fitness (log ratio)” value is -2.59. The value for G70A G88C C96G U134G was no more than -4.2; that for G70C C103G A120G U127C U134C was no more than -4.2. As to C72G A91C, the “polymerase ribozyme fitness (log ratio)” value was no more than -4.2. The value for C69U G94C was -1.65; that for A73G C96U A119U was -0.341. The value for G74A A150U was -2.61. With G70A G86A A89G C99A the figure was no more than -4.2; with G74U C85G, no more than -4.2; with C72G U77G G84A C114G, no more than -4.2.

Take C69G U101G G133U: the “polymerase ribozyme fitness (log ratio)” value was -3.95. With C72U C85G the figure was -1.95. With C72U A91U C96G, the “polymerase ribozyme fitness (log ratio)” value is no more than -4.2. With A73G C76A G88C C105G C108G C114U G136U the figure was -3.91; with A73G G83U G84U, -1.48; with G71U A91U A122G G143U U145C, no more than -4.2. The value for C72U G92A C116U U139G was -3.15.

For the variant A73U G84A U144C, the “polymerase ribozyme fitness (log ratio)” value is -1.83. With C69G A73C U77C G84A C118U C131A U139G the figure was no more than -4.2; with G71U G86U C125A A138G, -3.99.

On to G74A G84A A89G, for which the “polymerase ribozyme fitness (log ratio)” value is no more than -4.2.

Regarding C75G A142U, the “polymerase ribozyme fitness (log ratio)” value is -3.7.

For the variant C69G G126U C131A, the “polymerase ribozyme fitness (log ratio)” value is no more than -4.2. With G70A A91U C123U A138C C149U the figure was no more than -4.2.
